Experimental data reported in publication PMC2248580 (BMC Structural Biology, 2007).

B1: VRV-PLVIII, the PLA2 from Daboia russelli pulchella venom (enzyme)
chain: SLLEFGKMILEETGKLAIPSYSSYGCYCGWGGKGTPKDATDRCCFVHDCCYGNLPDCNPKSDRYKYKRVNGAIVCEKGTSCENRICECDKAAAICFRQNLNTYSKKYMLYPDFLCKGELKC
B2: Vbb, the PLA2 from Vipera berus berus venom (enzyme)
chain: NLFQFGNMINHMVGKHAVWSYLSYGCYCGWGGQGKPQDATDRCCFVHDCCYGRANGCDPKLSTYSYNFQNGNIVCGNKYGCLRHICECDRVAAICFQKNMNTYNKKYKNYSSSNCQENSDKC
modifications: γ-carboxyglutamic acid in the Gla domain (residues 1–39)

Target: T1, human activated blood coagulation factor X (FXa) (human)
T1 construct: also called factor Xa; Stuart factor
T1 sequence (P00742 whole entry): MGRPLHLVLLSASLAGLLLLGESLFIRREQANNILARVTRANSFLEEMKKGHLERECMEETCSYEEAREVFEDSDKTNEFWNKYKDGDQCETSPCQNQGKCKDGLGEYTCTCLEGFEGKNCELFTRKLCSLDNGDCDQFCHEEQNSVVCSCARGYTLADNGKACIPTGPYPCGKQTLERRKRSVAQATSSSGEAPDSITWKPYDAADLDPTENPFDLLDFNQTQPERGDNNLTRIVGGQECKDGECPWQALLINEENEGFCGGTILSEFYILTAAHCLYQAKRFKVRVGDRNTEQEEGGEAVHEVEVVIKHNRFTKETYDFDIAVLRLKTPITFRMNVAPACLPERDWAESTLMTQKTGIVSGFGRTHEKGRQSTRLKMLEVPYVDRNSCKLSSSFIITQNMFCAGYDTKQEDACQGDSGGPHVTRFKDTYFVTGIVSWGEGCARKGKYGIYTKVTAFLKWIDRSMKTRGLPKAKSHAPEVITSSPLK
Assay: SPR; […]; 37°C; HBS (10 mM Hepes, 150 mM NaCl, 5 mM CaCl2, 0.005% P20, pH 7.4); Langmuir fit; […]
Conditions: both partners purified

| Binder | Kd | koff | kon |
| --- | --- | --- | --- |
| B1 | 578 ± 15 nM | 0.026 s⁻¹ | 45000 M⁻¹ s⁻¹ |
| B2 | 830 ± 15 nM | 0.025 s⁻¹ | 30000 M⁻¹ s⁻¹ |
